Measurements: publication doi:10.1101/772699 (bioRxiv, 2019)

B1: K-domain of SEP3 (SEP3^75-178) (domain or fragment, A. thaliana, UniProt O22456-1 75-178, looked up)
chain: YGAPEPNVPSREALAVELSSQQEYLKLKERYDALQRTQRNLLGEDLGPLSTKELESLERQLDSSLKQIRALRTQFMLDQLNDLQSKERMLTETNKTLRLRLADG

What was measured:
[1] = target: SAP54 (purified, secreted part) (Aster Yellows-Witches' Broom phytoplasma (Candidatus Phytoplasma asteris strain AY-WB)); experiment: dynamic light scattering
dynamic light scattering = target: the molecule itself; experiment: dynamic light scattering

Molecule | stoichiometry N [1] | stoichiometry N (dynamic light scattering)
SAP54 (purified, secreted part) (natural protein) | 2 | 
B1 |  | 4
